# Measurements reported in patent US20180155451A1 (published 2018).
# T1: FcγRIIa R (human FcγRIIa, allotype R, Arg at position 131), extracellular domain with C-terminal His tag (human, UniProt P12318 34-217)
# T1 construct: extracellular domain; expressed in FreeStyle293 cells; analyte in Biacore; also called 2aR; FcgRIIa R
# T1 sequence (looked up): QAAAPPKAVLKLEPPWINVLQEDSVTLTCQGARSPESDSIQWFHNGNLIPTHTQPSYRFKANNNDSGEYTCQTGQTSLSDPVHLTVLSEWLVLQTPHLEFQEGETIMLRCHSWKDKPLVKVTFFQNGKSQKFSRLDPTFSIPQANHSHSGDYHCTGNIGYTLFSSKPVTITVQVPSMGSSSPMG
# B1: GpH7-B3 variant S337_02A/GpL16-k0 (antibody, human IgG1, kappa)
# heavy: not shown
# light: DIVMTQSPLSLPVTPGEPASISCQASESLVHSNRNTYLHWYLQKPGQSPQLLIYKVSNRFSGVPDRFSGSGSGTDFTLKISRVEAEDVGVYYCSQNTHVPPTFGQGTKVEIERTVAAPSVFIFPPSDEQLKSGTASVVCLLNNFYPREAKVQWKVDNALQSGNSQESVTEQDSKDSTYSLSSTLTLSKADYEKHKVYACEVTHQGLSSPVTKSFNRGEC
# notes: homodimerized antibody, mutation in both H chains; also called Ho Ab
# B2: GpH7-B3 variant P331_13S/GpL16-k0 (antibody, human IgG1, kappa)
# heavy: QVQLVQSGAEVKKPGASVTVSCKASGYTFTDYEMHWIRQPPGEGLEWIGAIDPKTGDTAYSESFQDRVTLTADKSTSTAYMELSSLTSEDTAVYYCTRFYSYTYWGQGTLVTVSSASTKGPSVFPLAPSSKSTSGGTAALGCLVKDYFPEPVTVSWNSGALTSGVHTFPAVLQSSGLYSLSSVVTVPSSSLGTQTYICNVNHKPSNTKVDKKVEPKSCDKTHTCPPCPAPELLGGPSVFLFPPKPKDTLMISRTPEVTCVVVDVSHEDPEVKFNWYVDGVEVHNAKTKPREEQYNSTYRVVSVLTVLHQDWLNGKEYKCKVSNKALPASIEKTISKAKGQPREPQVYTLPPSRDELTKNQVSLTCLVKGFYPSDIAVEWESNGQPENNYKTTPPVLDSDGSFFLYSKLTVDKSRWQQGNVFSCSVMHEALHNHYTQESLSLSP
# light: B1 light
# notes: as for B1
# B3: GpH7-B3 variant P238_20W/GpL16-k0 (antibody, human IgG1, kappa)
# heavy: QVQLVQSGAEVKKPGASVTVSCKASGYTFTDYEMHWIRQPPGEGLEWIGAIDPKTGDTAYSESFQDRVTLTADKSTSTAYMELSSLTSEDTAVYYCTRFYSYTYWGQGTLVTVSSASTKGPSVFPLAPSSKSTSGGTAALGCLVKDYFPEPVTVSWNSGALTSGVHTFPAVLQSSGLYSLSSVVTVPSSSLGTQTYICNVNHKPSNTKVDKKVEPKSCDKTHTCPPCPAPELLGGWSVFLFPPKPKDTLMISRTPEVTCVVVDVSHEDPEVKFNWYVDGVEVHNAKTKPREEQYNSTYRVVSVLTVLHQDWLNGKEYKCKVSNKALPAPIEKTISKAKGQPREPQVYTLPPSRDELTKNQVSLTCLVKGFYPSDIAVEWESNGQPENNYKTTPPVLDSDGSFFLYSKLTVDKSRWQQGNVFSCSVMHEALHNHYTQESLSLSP
# light: B1 light
# notes: as for B1
# B4: GpH7-B3 variant P331_06M/GpL16-k0 (antibody, human IgG1, kappa)
# heavy: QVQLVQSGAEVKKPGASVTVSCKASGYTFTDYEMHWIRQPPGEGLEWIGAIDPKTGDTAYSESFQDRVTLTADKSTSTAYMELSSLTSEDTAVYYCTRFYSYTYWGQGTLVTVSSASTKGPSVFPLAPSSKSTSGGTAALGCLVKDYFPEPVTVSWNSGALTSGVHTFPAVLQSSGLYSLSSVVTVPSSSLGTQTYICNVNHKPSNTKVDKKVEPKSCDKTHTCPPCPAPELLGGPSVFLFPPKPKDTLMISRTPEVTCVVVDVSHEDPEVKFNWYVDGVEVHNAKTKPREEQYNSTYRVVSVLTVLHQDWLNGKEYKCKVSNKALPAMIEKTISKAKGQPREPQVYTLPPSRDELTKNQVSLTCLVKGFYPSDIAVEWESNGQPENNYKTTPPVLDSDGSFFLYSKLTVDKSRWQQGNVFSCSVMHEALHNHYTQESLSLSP
# light: B1 light
# notes: as for B1
# B5: GpH7-B3 variant P331_07I/GpL16-k0 (antibody, human IgG1, kappa)
# heavy: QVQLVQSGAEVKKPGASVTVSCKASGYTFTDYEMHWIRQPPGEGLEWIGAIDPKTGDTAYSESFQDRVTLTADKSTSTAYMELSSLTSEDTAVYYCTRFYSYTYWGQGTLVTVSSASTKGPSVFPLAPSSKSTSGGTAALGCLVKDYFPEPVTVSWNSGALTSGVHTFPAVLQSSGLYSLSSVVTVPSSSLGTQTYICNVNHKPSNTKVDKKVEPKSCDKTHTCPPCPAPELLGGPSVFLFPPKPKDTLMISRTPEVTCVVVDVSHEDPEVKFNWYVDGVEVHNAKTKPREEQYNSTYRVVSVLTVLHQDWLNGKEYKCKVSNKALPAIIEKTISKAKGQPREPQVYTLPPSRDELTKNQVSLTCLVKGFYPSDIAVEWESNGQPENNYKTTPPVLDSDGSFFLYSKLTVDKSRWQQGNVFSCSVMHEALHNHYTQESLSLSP
# light: B1 light
# notes: as for B1
# B6: GpH7-B3 variant P271_09D/GpL16-k0 (antibody, human IgG1, kappa)
# heavy: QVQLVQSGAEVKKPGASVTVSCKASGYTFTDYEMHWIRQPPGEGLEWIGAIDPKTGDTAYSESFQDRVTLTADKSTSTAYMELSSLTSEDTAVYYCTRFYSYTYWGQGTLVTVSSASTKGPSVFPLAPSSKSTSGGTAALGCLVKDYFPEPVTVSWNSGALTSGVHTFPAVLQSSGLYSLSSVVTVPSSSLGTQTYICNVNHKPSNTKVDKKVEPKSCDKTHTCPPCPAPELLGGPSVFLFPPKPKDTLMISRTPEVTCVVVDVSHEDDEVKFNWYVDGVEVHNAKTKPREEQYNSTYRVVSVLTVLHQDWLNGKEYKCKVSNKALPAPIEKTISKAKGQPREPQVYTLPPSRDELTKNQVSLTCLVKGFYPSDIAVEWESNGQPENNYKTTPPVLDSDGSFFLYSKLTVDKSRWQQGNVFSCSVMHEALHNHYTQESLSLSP
# light: B1 light
# notes: as for B1
# B7: GpH7-B3 variant P238_19Q/GpL16-k0 (antibody, human IgG1, kappa)
# heavy: not shown
# light: B1 light
# notes: as for B1
# B8: GpH7-B3 variant P331_03V/GpL16-k0 (antibody, human IgG1, kappa)
# heavy: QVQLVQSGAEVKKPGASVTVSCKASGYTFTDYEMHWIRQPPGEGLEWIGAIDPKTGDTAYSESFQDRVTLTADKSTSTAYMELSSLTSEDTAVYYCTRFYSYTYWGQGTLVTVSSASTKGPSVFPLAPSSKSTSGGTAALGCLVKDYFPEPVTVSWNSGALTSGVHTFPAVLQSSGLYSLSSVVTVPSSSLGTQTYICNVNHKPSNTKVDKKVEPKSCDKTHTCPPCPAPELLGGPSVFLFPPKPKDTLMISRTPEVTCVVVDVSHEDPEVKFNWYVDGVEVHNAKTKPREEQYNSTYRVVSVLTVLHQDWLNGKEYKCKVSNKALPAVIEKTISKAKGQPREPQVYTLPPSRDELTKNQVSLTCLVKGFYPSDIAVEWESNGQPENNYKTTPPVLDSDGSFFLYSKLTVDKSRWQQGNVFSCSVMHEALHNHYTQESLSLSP
# light: B1 light
# notes: as for B1
# B9: GpH7-B3 variant P331_09D/GpL16-k0 (antibody, human IgG1, kappa)
# heavy: not shown
# light: B1 light
# notes: as for B1
# B10: GpH7-B3 variant P331_10E/GpL16-k0 (antibody, human IgG1, kappa)
# heavy: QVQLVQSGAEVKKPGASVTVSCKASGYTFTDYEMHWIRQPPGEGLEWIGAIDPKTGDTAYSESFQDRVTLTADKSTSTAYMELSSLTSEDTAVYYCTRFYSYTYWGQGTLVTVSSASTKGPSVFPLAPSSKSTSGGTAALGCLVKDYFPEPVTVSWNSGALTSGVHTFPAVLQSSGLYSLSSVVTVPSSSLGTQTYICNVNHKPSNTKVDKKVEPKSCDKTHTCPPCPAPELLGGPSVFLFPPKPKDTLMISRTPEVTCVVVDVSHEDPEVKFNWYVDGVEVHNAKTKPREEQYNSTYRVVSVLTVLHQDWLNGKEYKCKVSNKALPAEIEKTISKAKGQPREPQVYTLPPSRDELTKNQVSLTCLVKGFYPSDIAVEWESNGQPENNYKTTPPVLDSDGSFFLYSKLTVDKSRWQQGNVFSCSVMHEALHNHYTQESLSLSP
# light: B1 light
# notes: as for B1
# B11: GpH7-B3 variant P238_16H/GpL16-k0 (antibody, human IgG1, kappa)
# heavy: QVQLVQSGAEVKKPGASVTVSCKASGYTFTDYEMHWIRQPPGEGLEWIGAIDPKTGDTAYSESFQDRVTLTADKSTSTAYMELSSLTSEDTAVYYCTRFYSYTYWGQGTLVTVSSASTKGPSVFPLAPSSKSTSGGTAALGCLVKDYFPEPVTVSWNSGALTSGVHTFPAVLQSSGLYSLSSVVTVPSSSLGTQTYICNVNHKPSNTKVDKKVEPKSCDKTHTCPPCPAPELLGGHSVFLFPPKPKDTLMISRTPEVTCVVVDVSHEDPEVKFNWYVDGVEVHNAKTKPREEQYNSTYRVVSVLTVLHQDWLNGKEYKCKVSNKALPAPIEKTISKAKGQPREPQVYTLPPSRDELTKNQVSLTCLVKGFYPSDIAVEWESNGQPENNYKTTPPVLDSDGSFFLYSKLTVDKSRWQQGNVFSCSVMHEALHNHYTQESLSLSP
# light: B1 light
# notes: as for B1
# B12: GpH7-B3 variant P271_10E/GpL16-k0 (antibody, human IgG1, kappa)
# heavy: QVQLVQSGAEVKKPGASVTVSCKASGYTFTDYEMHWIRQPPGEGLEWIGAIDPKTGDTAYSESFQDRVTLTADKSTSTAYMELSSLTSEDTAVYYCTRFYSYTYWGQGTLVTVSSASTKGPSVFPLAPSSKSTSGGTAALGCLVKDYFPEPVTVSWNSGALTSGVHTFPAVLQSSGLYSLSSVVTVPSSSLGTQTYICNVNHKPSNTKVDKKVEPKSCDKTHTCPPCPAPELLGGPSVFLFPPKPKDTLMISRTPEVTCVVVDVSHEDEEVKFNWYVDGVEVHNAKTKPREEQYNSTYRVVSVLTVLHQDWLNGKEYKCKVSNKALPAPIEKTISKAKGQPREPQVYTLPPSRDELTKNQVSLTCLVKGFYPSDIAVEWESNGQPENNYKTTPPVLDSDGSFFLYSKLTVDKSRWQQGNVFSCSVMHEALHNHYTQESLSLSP
# light: B1 light
# notes: as for B1
# B13: GpH7-B3 variant P331_08L/GpL16-k0 (antibody, human IgG1, kappa)
# heavy: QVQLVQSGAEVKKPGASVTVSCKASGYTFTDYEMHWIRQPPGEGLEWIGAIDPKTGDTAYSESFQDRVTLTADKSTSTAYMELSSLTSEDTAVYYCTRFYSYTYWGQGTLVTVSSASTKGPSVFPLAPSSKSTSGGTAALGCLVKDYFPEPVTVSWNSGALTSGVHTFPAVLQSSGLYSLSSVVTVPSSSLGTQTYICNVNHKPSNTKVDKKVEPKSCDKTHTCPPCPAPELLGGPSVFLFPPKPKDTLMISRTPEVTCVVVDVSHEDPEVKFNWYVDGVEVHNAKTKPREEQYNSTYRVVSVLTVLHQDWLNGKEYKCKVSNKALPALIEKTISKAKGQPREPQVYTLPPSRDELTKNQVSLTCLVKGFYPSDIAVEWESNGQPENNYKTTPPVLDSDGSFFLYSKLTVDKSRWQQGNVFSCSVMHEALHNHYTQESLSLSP
# light: B1 light
# notes: as for B1
# B14: GpH7-B3 variant P238_10E/GpL16-k0 (antibody, human IgG1, kappa)
# heavy: not shown
# light: B1 light
# notes: as for B1
# B15: GpH7-B3 variant P238_15Y/GpL16-k0 (antibody, human IgG1, kappa)
# heavy: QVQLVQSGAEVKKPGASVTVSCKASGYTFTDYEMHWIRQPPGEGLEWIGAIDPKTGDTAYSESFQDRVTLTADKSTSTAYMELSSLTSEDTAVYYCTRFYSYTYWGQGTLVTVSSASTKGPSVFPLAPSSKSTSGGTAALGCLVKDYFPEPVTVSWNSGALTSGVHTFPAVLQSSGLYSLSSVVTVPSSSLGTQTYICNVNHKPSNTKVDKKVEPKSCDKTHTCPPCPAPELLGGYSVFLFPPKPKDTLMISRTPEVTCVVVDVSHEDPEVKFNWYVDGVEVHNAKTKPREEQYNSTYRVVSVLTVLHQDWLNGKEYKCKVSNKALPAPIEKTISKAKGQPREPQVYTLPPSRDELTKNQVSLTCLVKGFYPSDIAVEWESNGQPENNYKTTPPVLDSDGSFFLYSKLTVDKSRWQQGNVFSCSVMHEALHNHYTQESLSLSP
# light: B1 light
# notes: as for B1
# B16: GpH7-A5/GpH7-B3 variant S267_02A/GpL16-k0 (antibody, human IgG1, kappa)
# heavy 1: not shown
# heavy 2: not shown
# light: B1 light
# notes: heterodimerized, mutation in one H chain only; also called He Ab
# B17: GpH7-A5/GpH7-B3 variant S267_09D/GpL16-k0 (antibody, human IgG1, kappa)
# heavy 1: not shown
# heavy 2: not shown
# light: B1 light
# notes: as for B16
# B18: GpH7-A5/GpH7-B3 variant K334_13S/GpL16-k0 (antibody, human IgG1, kappa)
# heavy 1: not shown
# heavy 2: not shown
# light: B1 light
# notes: as for B16
# B19: GpH7-A5/GpH7-B3 variant S337_07I/GpL16-k0 (antibody, human IgG1, kappa)
# heavy 1: not shown
# heavy 2: not shown
# light: B1 light
# notes: as for B16
# B20: GpH7-A5/GpH7-B3 variant V266_07I/GpL16-k0 (antibody, human IgG1, kappa)
# heavy 1: not shown
# heavy 2: not shown
# light: B1 light
# notes: as for B16
# B21: GpH7-A5/GpH7-B3 variant A330_19Q/GpL16-k0 (antibody, human IgG1, kappa)
# heavy 1: not shown
# heavy 2: not shown
# light: B1 light
# notes: as for B16
# B22: GpH7-A5/GpH7-B3 variant S324_02A/GpL16-k0 (antibody, human IgG1, kappa)
# heavy 1: not shown
# heavy 2: not shown
# light: B1 light
# notes: as for B16
# B23: GpH7-A5/GpH7-B3 variant G236_14T/GpL16-k0 (antibody, human IgG1, kappa)
# heavy 1: not shown
# heavy 2: not shown
# light: B1 light
# notes: as for B16
# B24: GpH7-A5/GpH7-B3 variant E333_13S/GpL16-k0 (antibody, human IgG1, kappa)
# heavy 1: not shown
# heavy 2: not shown
# light: B1 light
# notes: as for B16
# B25: GpH7-A5/GpH7-B3 variant K334_19Q/GpL16-k0 (antibody, human IgG1, kappa)
# heavy 1: not shown
# heavy 2: not shown
# light: B1 light
# notes: as for B16
# B26: GpH7-A5/GpH7-B3 variant A327_09D/GpL16-k0 (antibody, human IgG1, kappa)
# heavy 1: not shown
# heavy 2: not shown
# light: B1 light
# notes: as for B16
# B27: GpH7-A5/GpH7-B3 variant S337_10E/GpL16-k0 (antibody, human IgG1, kappa)
# heavy 1: not shown
# heavy 2: not shown
# light: B1 light
# notes: as for B16
# B28: GpH7-A5/GpH7-B3 variant S239_10E/GpL16-k0 (antibody, human IgG1, kappa)
# heavy 1: not shown
# heavy 2: not shown
# light: B1 light
# notes: as for B16
# B29: GpH7-A5/GpH7-B3 variant K326_12R/GpL16-k0 (antibody, human IgG1, kappa)
# heavy 1: not shown
# heavy 2: not shown
# light: B1 light
# notes: as for B16
# B30: GpH7-A5/GpH7-B3 variant I336_10E/GpL16-k0 (antibody, human IgG1, kappa)
# heavy 1: not shown
# heavy 2: not shown
# light: B1 light
# notes: as for B16
# B31: GpH7-A5/GpH7-B3 variant L234_04F/GpL16-k0 (antibody, human IgG1, kappa)
# heavy 1: not shown
# heavy 2: not shown
# light: B1 light
# notes: as for B16
# B32: GpH7-A5/GpH7-B3 variant S239_08L/GpL16-k0 (antibody, human IgG1, kappa)
# heavy 1: not shown
# heavy 2: not shown
# light: B1 light
# notes: as for B16
# B33: GpH7-A5/GpH7-B3 variant I336_03V/GpL16-k0 (antibody, human IgG1, kappa)
# heavy 1: not shown
# heavy 2: not shown
# light: B1 light
# notes: as for B16
# B34: GpH7-A5/GpH7-B3 variant T335_16H/GpL16-k0 (antibody, human IgG1, kappa)
# heavy 1: not shown
# heavy 2: not shown
# light: B1 light
# notes: as for B16
# B35: GpH7-A5/GpH7-B3 variant S337_09D/GpL16-k0 (antibody, human IgG1, kappa)
# heavy 1: not shown
# heavy 2: not shown
# light: B1 light
# notes: as for B16
# B36: GpH7-A5/GpH7-B3 variant T335_19Q/GpL16-k0 (antibody, human IgG1, kappa)
# heavy 1: not shown
# heavy 2: not shown
# light: B1 light
# notes: as for B16
# B37: GpH7-A5/GpH7-B3 variant E333_08L/GpL16-k0 (antibody, human IgG1, kappa)
# heavy 1: not shown
# heavy 2: not shown
# light: B1 light
# notes: as for B16
# B38: GpH7-A5/GpH7-B3 variant I336_18N/GpL16-k0 (antibody, human IgG1, kappa)
# heavy 1: not shown
# heavy 2: not shown
# light: B1 light
# notes: as for B16
# B39: GpH7-A5/GpH7-B3 variant E333_14T/GpL16-k0 (antibody, human IgG1, kappa)
# heavy 1: not shown
# heavy 2: not shown
# light: B1 light
# notes: as for B16
# B40: GpH7-A5/GpH7-B3 variant E333_04F/GpL16-k0 (antibody, human IgG1, kappa)
# heavy 1: not shown
# heavy 2: not shown
# light: B1 light
# notes: as for B16
# B41: GpH7-A5/GpH7-B3 variant T335_15Y/GpL16-k0 (antibody, human IgG1, kappa)
# heavy 1: not shown
# heavy 2: not shown
# light: B1 light
# notes: as for B16
# B42: GpH7-A5/GpH7-B3 variant K326_01G/GpL16-k0 (antibody, human IgG1, kappa)
# heavy 1: not shown
# heavy 2: not shown
# light: B1 light
# notes: as for B16
# B43: GpH7-A5/GpH7-B3 variant G236_15Y/GpL16-k0 (antibody, human IgG1, kappa)
# heavy 1: not shown
# heavy 2: not shown
# light: B1 light
# notes: as for B16
# B44: GpH7-A5/GpH7-B3 variant T335_07I/GpL16-k0 (antibody, human IgG1, kappa)
# heavy 1: not shown
# heavy 2: not shown
# light: B1 light
# notes: as for B16
# B45: GpH7-A5/GpH7-B3 variant S267_10E/GpL16-k0 (antibody, human IgG1, kappa)
# heavy 1: not shown
# heavy 2: not shown
# light: B1 light
# notes: as for B16
# B46: GpH7-A5/GpH7-B3 variant K326_07I/GpL16-k0 (antibody, human IgG1, kappa)
# heavy 1: not shown
# heavy 2: not shown
# light: B1 light
# notes: as for B16
# B47: GpH7-A5/GpH7-B3 variant G236_04F/GpL16-k0 (antibody, human IgG1, kappa)
# heavy 1: not shown
# heavy 2: not shown
# light: B1 light
# notes: as for B16
# B48: GpH7-A5/GpH7-B3 variant L234_20W/GpL16-k0 (antibody, human IgG1, kappa)
# heavy 1: not shown
# heavy 2: not shown
# light: B1 light
# notes: as for B16
# B49: GpH7-A5/GpH7-B3 variant T335_13S/GpL16-k0 (antibody, human IgG1, kappa)
# heavy 1: not shown
# heavy 2: not shown
# light: B1 light
# notes: as for B16
# B50: GpH7-A5/GpH7-B3 variant T335_01G/GpL16-k0 (antibody, human IgG1, kappa)
# heavy 1: not shown
# heavy 2: not shown
# light: B1 light
# notes: as for B16
# B51: GpH7-A5/GpH7-B3 variant L234_15Y/GpL16-k0 (antibody, human IgG1, kappa)
# heavy 1: not shown
# heavy 2: not shown
# light: B1 light
# notes: as for B16
# B52: GpH7-A5/GpH7-B3 variant Y296_18N/GpL16-k0 (antibody, human IgG1, kappa)
# heavy 1: not shown
# heavy 2: not shown
# light: B1 light
# notes: as for B16
# B53: GpH7-A5/GpH7-B3 variant T335_10E/GpL16-k0 (antibody, human IgG1, kappa)
# heavy 1: not shown
# heavy 2: not shown
# light: B1 light
# notes: as for B16
# Biological target: T1, FcγRIIa R (human FcγRIIa, allotype R, …)
# Experiment: SPR (Biacore), relative binding vs GpH7-B3/GpL16-k0
# Method: Analysis of interaction between objective antibody and the FcγR was carried out using Biacore T100 (GE Healthcare). HBS-EP+ (GE Healthcare) was used as the running buffer, and the measurement temperature was set to 25° C. Chips produced by immobilizing the antigen peptide by the amine coupling method to a Series S Sencor Chip CM5 (GE Healthcare), or alternatively, chips produced by allowing preliminarily biotinylated antigen peptides to interact with and immobilize onto a Series S Sensor Chip SA (certified) (GE Healthcare) were used. Antibodies of interest were captured onto an antigen peptide-immobilized chip, and allowed to interact to each FcγR diluted with running buffer. To regenerate and repeatedly use the chip, the antibodies captured on the chip were washed off by reacting 10 mM glycine-HCl, pH 1.5.
# The FcγR-binding activity of each antibody was assessed primarily using as an indicator the FcγR-binding activity and dissociation constant for FcγR.
row,Ho/Con_2aR,Binder
1,"102 relative, control = 100",B1
2,"87.8 relative, control = 100",B2
3,"25.7 relative, control = 100",B3
4,"79.8 relative, control = 100",B4
5,"67 relative, control = 100",B5
6,"92.4 relative, control = 100",B6
7,"19.4 relative, control = 100",B7
8,"89.1 relative, control = 100",B8
9,"88.8 relative, control = 100",B9
10,"94.6 relative, control = 100",B10
11,"25.5 relative, control = 100",B11
12,"88.8 relative, control = 100",B12
13,"74.4 relative, control = 100",B13
14,"21.4 relative, control = 100",B14
15,"95.9 relative, control = 100",B15

# Biological target: FcγRIIa H (human FcγRIIa, allotype with His at position 131), extracellular domain with C-terminal His tag (human, UniProt P12318 34-217)
# Experiment: SPR (Biacore), antibody captured on antigen peptide chip, FcγR as analyte; relative to HeCon Ab GpH7-A5/GpH7-B3/GpL16-k0 = 100
row,He/Con_2aH [control = 100],Binder
1,120,B16
2,105,B17
3,102,B18
4,101,B19
5,106,B20
6,102,B21
7,102,B22
8,103,B23
9,101,B24
10,101,B25
11,105,B26
12,102,B27
13,112,B28
14,101,B29
15,102,B30
16,120,B31
17,105,B32
18,102,B33
19,105,B34

row,He/Con_2aH [control = 100],Binder
1,107,B35
2,103,B36
3,102,B37
4,103,B38
5,100,B39
6,102,B40
7,106,B41
8,100,B42
9,136,B43
10,108,B44
11,102,B45
12,100,B46
13,118,B47
14,114,B48
15,106,B49
16,103,B50
17,120,B51
18,104,B52
19,108,B53
